Test results taken from the RNAGym collection of RNA variant scans (doi:10.1073/pnas.2313332121).

B1: TPR t1 (parent)
chain: GACCAAUCUGCCCUCAGAGCUCGAGAACAUCUUCGGAUGCAGAGGAGGCAGGCUUCGGUGGCGCGAUAGCGCCAACGUCCUCAACCUCCAAUGCAUCCCACCACAUGAUGAUGCCUGAAGAGCCUUGGUUUUUUG

Variants of: B1
Assay: polymerase ribozyme fitness, log enrichment relative to wild type (log ratio); higher = more active; in vitro selection for triplet polymerase activity
In short: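 Each subunit of a heterodimeric triplet polymerase ribozyme was represented by a PCR-built, transcribed mutant library that underwent triplicate single-round in vitro selection with frozen incubation at −7 °C. Extended constructs were recovered by gel excision, streptavidin-bead capture and RT-PCR, and Illumina sequencing of input and output libraries kept genotypes with ≥10 input reads and ≥1 read per output. Fitness is the logarithm of genotype enrichment relative to wild-type enrichment, from inverse-variance-weighted replicate averages, with a logarithm base of 2.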

Row | Variant | polymerase ribozyme fitness (log ratio)
1 | C8U G57U U78A C104A | -1.43
2 | U9C C72U C98U G120A | 0.967
3 | C8U G47C G57A U92C | -4.38
4 | C8U C13U A68G U129G | -3.57
5 | U9C G39U G48A C53G A91G | -2.06
6 | C8U C11U C70U C73U C102A | -3.01
7 | C8U G39U A66G G113C | -4.22
8 | U9A A108U C123G | -4.11
9 | U9A C11A G42U C64U | -1.3
10 | C8U G71A C88U | -0.224
11 | C8U C20A A26C G60C | -5.68
12 | U9A C22G G51A C56G C123A | -3.28
13 | U9A G71U C94A C123G | 0.355
14 | C8U U92C | -0.788
15 | C8U C70G C97U C124U U131A | -1.27
16 | U9C A26G A27U U54A A74G C82G | -6.24
17 | C8U C73G | -0.251
18 | C8U G44C A83U | -0.336
19 | U9A C11A C56A A95G U106A C123U | 1.46
20 | U9A C15A G39U C49A C56U A121U | 0.6
21 | U9A C13G A37G C82G U116C U125A | -4.1

Row | Variant | polymerase ribozyme fitness (log ratio)
22 | U9A C56A A66U | -0.548
23 | U9A G44C C70G | -4.48
24 | C8U U59G | 0.21
25 | U9G A108G | -1.95
26 | U9C A41G G45U C82U C85G | -4.04
27 | C8U C22U A119U | -2.76
28 | U9G A43U G52U C72U C82A | -3
29 | U9G C72G C86A | -1.02
30 | U9G A26U G39U U78C C82G | -4.7
31 | U9C C31A G44A G47U G69U C88U A118U U133G | -4.68
32 | U9A C72G | -0.0842
33 | C8U G39A C40A C62U G93U A111C | -0.367
34 | C8U U32A G60C C97A C99A G122U | -5.09
35 | U9G A74U | 0.26
36 | U9G C12A U14C G44C G63A G77A G93A | -2.85
37 | U9A G60A C70A C98U C101G C123G | -6.71
38 | U9C C11U G47C U96G | -3.05
39 | C8U C15A G69A C73A C102U C123A | -5.63
40 | C8U A27U | -1.79
41 | C8U G44U G52A G63C A84U C85A | -6.83
42 | C8U A24G G36A G44U C72U | -2.98

Row | Variant | polymerase ribozyme fitness (log ratio)
43 | U9G C56A A66C C72U | -1.3
44 | C8U A46U C70U G122U | -0.612
45 | U9G A29U G39C | -3.86
46 | U9A C49A C56U C73A | -0.459
47 | U9C G19U U81C U130C | -3.09
48 | C8U G36U C56U C82A C89G | -2.15
49 | U9C C53G A105U | -1.72
50 | U9C G120C | 1.46
51 | U9A G10A C40A C70U U78C G110U C123U | -4.89
52 | U9A A16U G63C U132A | -0.608
53 | U9A G19C A41U G63C | -3.34
54 | C8U U14A A46U C56U | -1.92
55 | U9C A41C A91C | -1.02
56 | U9C U78C A83U A90G A121G | 2.5
57 | U9C U32C U59G A121C G122U | 0.733
58 | U9C G69A G77A | -2.73
59 | U9C C20A A37G G47A U87G G120A G122U | -3.6
60 | U9G C20A U54C C76U G128C | -5.03
61 | U9G A29G | -1.35
62 | U9G A27G A37U | -0.779
63 | C8U C13U G35C A46U C115A | -3.54

Row | Variant | polymerase ribozyme fitness (log ratio)
64 | U9A G17U U78C C82G C86G C124U U125C | -0.551
65 | U9A C20U A43U A50C U87A | -1.81
66 | C8U C13U A103C C115A A119G | -2.38
67 | U9C C72A A83U A90G U131C | 0.697
68 | U9A U33G G36U U38G C53G C115G | -7.69
69 | C8U U21A G69C U106C U112A | -0.365
70 | U9A G10C C73U C102G C114G C115G | -6.5
71 | U9A C80U | 0.294
72 | C8U C34U | -3.66
73 | C8U C34G | -5.47
74 | U9A G23A G25C A43C G51A A68G U106A C123U | -6.69
75 | C8G U78C A105C | -2.32
76 | U9A G48C C62A G77A C88U U112A | -3.81
77 | C8U A46G G48C C72G C80U A105C G122A | -5.9
78 | C8G U14C G39C A100C | -0.867
79 | U9A G61A | 0.705
80 | U9C C11U C101A | -0.843
81 | C8U A27C G63C C79A A119G | -4.92
82 | C8U C15G G63U U87A | -3.32
83 | C8U C40U G60A C82A G120U | 1.65
84 | C8U C13A G44U C72A C79U C85A | -3.38
